Measured values taken from the DeepSol protein solubility set.

Assay: soluble on expression in E. coli; label from the status in PepcDB or PDB records

## RREMTSYSDIDLILLHPEGSIPSGLEHFWYPIWDAKIRLDYTVRTPKECADMISAEPTAALALLDISHCSGDPQLTATTRCVVLEQWRRELKKNFNDVTDTAIARWNRSGSVVDMTHPDLKHGRGGLRDIELIRALALGNLCDKRPLGEERQLLLNIRTMLHQHAGRARDVLDPEFAVDVALDLGCEDRYDLSRSLAKAARTIDDATNAALSTARNLLPRRSSVRKAVRRPVDIDVVEVDGTLALSRTPNLEDPSLVLRVAAASARTGMTISESAWKQLETVPSMPPT
  soluble on expression in E. coli: not soluble

## MGSDKIHHHHHHAFLTLKPVKTPFTMYSSVLGDFVITQLDENKQLHRYDTKGNTYTQQQVDSLLPSLYVRQLTADERFPDTICGKAVSPKDIQLTNFTFKSVPSAINAPQTGLYFLMESMSKRVDLKMPEDAFRFTDKGIEFIRMETNCIDEAKSKLFTDMLVQKGFAFPACYASGNPTTRKDYDEGYLVLDANHKLFHLKCTKGRPYVKAIQLPEGVLPEYVFITEFRSRRTLGYMVDSKHHFYIINSDGSLVKSALPGFDPAKDELTIFGNMFDWTVKLSTDKDDYYYALDATDYSLIKEHAYKDIRRSVPGLSFTSPDDKFVKPRF
  soluble on expression in E. coli: not soluble

## MTIEHGIWPGKIDIYEKNFNTGQKCMRNPFQNPFPESDTARHSIWEMLVSRDIDAFLAADWSMVADDFVEESFIGVDGRRETNPDKWRLTFPSLAVYRDEWLRQARDFAGQSFAEDPREAIFTTTTLEDIEVDGELALARKKFDGGLKKADGTFDVMKWQTVYYCRLHRGRWKICGFTGYLPNPMGSN
  soluble on expression in E. coli: soluble

## MSLSGTDIHTSDYYFLFEEKFRGSRELVKARLRRYIPYFKGCRRVLDIGCGRGEFLELCKEEGIESIGVDINEDMIKFCEGKFNVVKSDAIEYLKSLPDKYLDGVMISHFVEHLDPERLFELLSLCYSKMKYSSYIVIESPNPTSLYSLINFYIDPTHKKPVHPETLKFILEYLGFRDVKIEFFEECEELTKLAKIDSNTVSEEVIRVINENIEKLNRILFGPQDYAIIAKKEGHHHHHH
  soluble on expression in E. coli: soluble

## MMKSIILIVLDGLGDRPGSDLQNRTPLQAAFRPNLNWLASHGINGIMHPISPGIRCGSDTSHMSLLGYDPKVYYPGRGPFEALGLGMDIRPGDLAFRANFATNRDGVIVDRRAGRENKGNEELADAISLDMGEYSFRVKSGVEHRAALVVSGPDLSDMIGDSDPHREGLPPEKIRPTDPSGDRTAEVMNAYLEEARRILSDHRVNKERVKNGRLPGNELLVRSAGKVPAIPSFTEKNRMKGACVVGSPWLKGLCRLLRMDVFDVPGATGTVGSNYRGKIEKAVDLTSSHDFVLVNIKATDVAGHDGNYPLKRDVIEDIDRAMEPLKSIGDHAVICVTGDHSTPCSFKDHSGDPVPIVFYTDGVMNDGVHLFDELSSASGSLRITSYNVMDILMQLAGRSDKFGSLEHHHHHH
  soluble on expression in E. coli: soluble

## MRYVVGHKNPDTDSIASAIVLAYFLDCYPARLGDINPETEFVLRKFGVMEPELIESAKGKEIILVDHSEKSQSFDDLEEGKLIAIIDHHKVGLTTTEPILYYAKPVGSTATVIAELYFKDAIDLIGGKKKELKPDLAGLLLSAIISDTVLFKSPTTTDLDKEMAKKLAEIAGISNIEEFGMEILKAKSVVGKLKPEEIINMDFKNFDFNGKKVGIGQVEVIDVSEVESKKEDIYKLLEEKLKNEGYDLIVFLITDIMKEGSEALVVGNKEMFEKAFNVKVEGNSVFLEGVMSRKKQVVPPLERAYNG
  soluble on expression in E. coli: soluble

## MGSDKIHHHHHHMIPRNEYLENLISFRDKQLIKVVTGIRRCGKSTLFELYQDYLLQNDVKPEQIIAFNLEDGDWAEIENSKDLYELVKARLLPDRMNYVFLDEVQRVTDFQKAVDSLFIKKNCDVYITGSNAYLLSGELATLLSGRYVEIKMLPLSFKEYVSAFPPDSSIDRLYQDYIHNSSFPYTLELKRQKDIRQYLDGLYDSIVLKDIVARRRFPDLAMLQSVVRFLFDNIGNLCSTKKIADTMTSAGRKITVHTVESYLTALTDSFIFYRVGRYDVKGKQYLKTGDKYYAADMGLRYNALGTKKADAGHILENIVYLELLRRGYEVHIGKVGAAEIDFIAIGPEGEEYYQVAYTVMDADGKTLQRELAPLDAISDHNPKFLLTMDHGPLVSHNGIKQLNALDWLLK
  soluble on expression in E. coli: not soluble

## MSSKSIHEKRAIAKYAASLIEDGDCIFVDAGTTTYELIDYLEGKDILVVSNGLSHIDTLIQKNIKCYVIGGNIKISTKAITGCDALMCLSKFRFDKCFIGANGVHHTYGLTTPDTEEAILKECAINNSRKAYVLADDSKFGEISTIKFSDINKCVIITNEKPKDNTYDKKTDIKVVDILEHHHHHH
  soluble on expression in E. coli: soluble

## MVYYEIIKDIVFTYNLQFTHLIHNDRISEVNLGGVTMRSIITQICNGVLHGQSYQSGSNDLDKGNSEIFASSLFVHLNEQGKEIIKHKDSDDKIVIGYTKDGMAFQIVVDGFYGCERQAVFSFIDNYVLPLIDNFSLDLTRYPDSKKVTESLIHTIYSLRSKHAPLAEFTMSLCVTYQKDEQLFCAGFGIGDTGIAIKRNEGTIEQLVCHTEVDGFKDAFDNYSSANIDLVIERNSVFNTKVMPGDELVGYTYVPPMLEMTEKEFEVETVDGKKINKRIVRHLNLDPGNFDDKDPLFSQLLQVVKSKQKQLVEQAKETGQIQRFGDDFTVGRLVIPDQLLINQLRIHALSIGVSDGLLSYIKNENENKGFLGIYGFFTGADKNIEKATLYKNLIAKYQNNHFISLIILSALVSDSKTPLMTQYLVGYLDFPSKALLANKITELLLKELENPDMREILGSRLATDVIEELETKIIRYIHNPAGSDIHSTLNLWTADKIKAATNSSLTI
  soluble on expression in E. coli: not soluble

## MSLSEFWKEKHGEREQDHEKTIMDGYSVANRFDGTGGGWGYSANSVEAIQFKVSKEIRLVGVGLYGGRGEYISKLKLYRQIGTEADELYVEQITETDETVYDCGAHETATMLFSQPIVIQPNHWHVVSAKISGPSSDCGANGKRHVECDGVTFQFRKSAVSNNGTDVDVGQIPELYYQIVGGSESRDESDSNKQLSISREGHHHHHH
  soluble on expression in E. coli: soluble

## MGSDKIHHHHHHMSRLVRSATLSRYTEVARSVGLDPLRILAEVGLPRTCLDAGDNLVSANAVCRLLEMSAADSDAEDFGLRMGEGRQLSVLGPLGMAVRDSPTLRDALGAMVRYITLHSEALFLGVEEREGALVIRVSLIVEHAGSTRQADEMVVVSLYRMLQELIGPGWRARRICLSHEAPRSLASHLRVFGRAVDFGCDFNGIVCELKDMDAMPRAARPELAQYAHAYLDSLSARATLSMTENVRRMVLSLLPSGNCSVERVASQLGVDRRTVHRKLLQEGASFSSILDEVRATLALQYLRHLERPVSYVAVLLGFSMQSAFSRWFRDHFGCSPSAWRSEGMQPARPVPRQPLLAASPEQRM
  soluble on expression in E. coli: not soluble

## GPGSMEEFYGMEVFAGKTAKPNISADRVLHVTQVALPPNASHAITLLVKTEGKSFVLATLDPQQALFHVSVDMLFSGKQKLAFTCEGATGAVHIIGYTQLAEEEEDAIDDEDDDDMMDDEDVA
  soluble on expression in E. coli: soluble

## MAHHHHHHMSGRPEEGLYGNVESQSSNVSQGGRRRTRSEFEGDTDHSSATRIRLEGMYRPQWTMSSTVKDILLEGSTLRTDMKLNEFIRSNLDEEWVVERNGNVIMEAFVQEPDAYVQDQELLRRIINLPAYQALEERKILLEATYKLHHEGVYFLRQWGEHEGKDTVSSHARGKLNGVLTGIEIEEKERREAEEREKARREEEARRDAEEEKARREEQINFNLTLSIKDAIFQGRARVYKMKLNRFLKMELDGRGVADTNRRVLLKEFFKDPTRYVRDAGVLNEIQASDAYLMAKRAVREEMDMEEDIRKLQYKHLRTLLGWSIASAEIRASVREITKGFLDAVLEELRKPTTTIAR
  soluble on expression in E. coli: not soluble

## MGHHHHHHSHMHGPKPTVQEIVLELCPCNEIEPVDLVCHEQLGDSDDEIDEPDHAVNHHQHQLLARRDEQQRHTIQCTCCKCNNLLQLVVEASRENLRKLELLFMDSLNFVCPWCATETQ
  soluble on expression in E. coli: not soluble

## MTNKISSSDNLSNAVSATDDNASRTPNLNRRALVGGGVGLAARGALASGLQAATLPAGASQVPTTPAGRPMPYAIRPMPEDRRFGYAIVGLGKYALNQILPGFAGCQHSRIEALVSGNAEKAKIVAAEYGVDPRKIYDYSNFDKIAKDPKIDAVYIILPNSLHAEFAIRAFKAGKHVMCEKPMATSVADCQRMIDAAKAANKKLMIGYRCHYDPMNRAAVKLIRENQLGKLGMVTTDNSDVMDQNDPAQQWRLRRELAGGGSLMDIGIYGLNGTRYLLGEEPIEVRAYTYSDPNDERFVEVEDRIIWQMRFRSGALSHGASSYSTTTTSRFSVQGDKAVLLMDPATGYYQNLISVQTPGHANQSMMPQFIMPANNQFSAQLDHLAEAVINNKPVRSPGEEGMQDVRLIQAIYEAARTGRPVNTDWGYVRQGGY
  soluble on expression in E. coli: soluble
